Broadly, the Km is the substrate concentration at which the rate is half of its maximum. As a reminder, the kcat is the number of substrate molecules converted per active site and unit of time at saturation. Broadly, the kcat/Km is the second-order rate constant that governs catalysis at low substrate concentration.

Substrate in the data set: CCCCCCCC(=O)N(C)CCN
Briefly: steady-state acetyltransferase assay, substrate saturation. The class given is biochemical, Pseudomonas aeruginosa. The note with it: AcCoA held at 0.5 mM; NANMO 0-3.5 mM, used as hydrochloride. An excerpt:
steady-state acetyltransferase assay, substrate saturation on PA3944

B1: PA3944 (Pseudomonas aeruginosa PAO1) (protein)
chain: MNANLPPSAISELHGPRLLLRAWRDSDREAFAEMCADPQVMEFFPSVLDRAQSDALVDRVQAHFAERGYGPWALELPGEAAFIGFTGLFDVTMDVHFAPTVEIGWRLAPAYWGRGLAREAAETALDFAFERLRLPEVVAFTTPPNRRSWGLMERLGMRRDPAEDFDHPLLAADHPMRRHILYRVDAARWAER
notes: heterologous expression; N-terminal polyhistidine tag kept for kinetics, removed for crystallization; monomer in solution
Regarding B1, the Km was 1070 ± 30 µM, the kcat came out at 0.41 s⁻¹ and the kcat/Km was determined as 380 M⁻¹ s⁻¹.

These data come from article PMC8072286, “Gcn5-Related N-Acetyltransferases (GNATs) With a Catalytic Serine Residue Can Play Ping-Pong Too” (Frontiers in Molecular Biosciences, 2021).
